Measurements reported in PMC7319049 (Nature, 2020).

T1: Swi1 (S. cerevisiae, UniProt P09547 1-1314)
T1 sequence: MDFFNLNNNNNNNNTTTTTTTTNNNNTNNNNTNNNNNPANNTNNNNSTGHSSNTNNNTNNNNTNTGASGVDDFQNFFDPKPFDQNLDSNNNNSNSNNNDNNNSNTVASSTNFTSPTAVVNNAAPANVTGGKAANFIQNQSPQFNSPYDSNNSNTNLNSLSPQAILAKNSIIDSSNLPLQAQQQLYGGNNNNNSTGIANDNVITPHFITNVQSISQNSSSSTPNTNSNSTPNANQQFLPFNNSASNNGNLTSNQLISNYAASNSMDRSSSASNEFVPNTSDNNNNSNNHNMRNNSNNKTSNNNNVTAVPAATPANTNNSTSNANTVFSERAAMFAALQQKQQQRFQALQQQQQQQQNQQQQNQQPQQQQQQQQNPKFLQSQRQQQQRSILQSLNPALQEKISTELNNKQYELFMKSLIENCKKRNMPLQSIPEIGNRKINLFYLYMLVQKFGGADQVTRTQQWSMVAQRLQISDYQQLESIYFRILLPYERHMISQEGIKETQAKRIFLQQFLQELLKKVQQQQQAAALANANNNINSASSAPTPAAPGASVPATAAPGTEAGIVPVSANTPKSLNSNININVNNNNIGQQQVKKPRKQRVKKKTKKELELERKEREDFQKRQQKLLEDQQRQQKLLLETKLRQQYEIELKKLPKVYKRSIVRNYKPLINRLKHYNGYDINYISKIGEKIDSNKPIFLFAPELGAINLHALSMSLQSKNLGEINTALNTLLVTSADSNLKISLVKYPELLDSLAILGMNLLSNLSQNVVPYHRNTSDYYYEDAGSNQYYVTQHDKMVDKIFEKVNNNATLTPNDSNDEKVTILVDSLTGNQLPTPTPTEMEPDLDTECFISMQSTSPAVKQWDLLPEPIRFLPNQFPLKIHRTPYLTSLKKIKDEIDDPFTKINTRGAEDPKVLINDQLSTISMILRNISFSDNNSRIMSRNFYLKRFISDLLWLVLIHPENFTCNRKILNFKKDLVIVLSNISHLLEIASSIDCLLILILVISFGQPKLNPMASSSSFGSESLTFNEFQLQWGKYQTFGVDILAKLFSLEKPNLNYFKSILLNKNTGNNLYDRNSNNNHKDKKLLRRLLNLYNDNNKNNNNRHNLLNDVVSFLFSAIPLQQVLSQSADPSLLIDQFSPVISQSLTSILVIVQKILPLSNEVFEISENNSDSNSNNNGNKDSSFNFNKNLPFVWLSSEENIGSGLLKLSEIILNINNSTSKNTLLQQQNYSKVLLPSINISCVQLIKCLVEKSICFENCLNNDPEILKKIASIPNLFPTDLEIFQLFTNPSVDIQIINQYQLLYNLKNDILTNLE

B1: Snf5 (natural protein)
chain: MNNQPQGTNSVPNSIGNIFSNIGTPSFNMAQIPQQLYQSLTPQQLQMIQQRHQQLLRSRLQQQQQQQQQTSPPPQTHQSPPPPPQQSQPIANQSATSTPPPPPAPHNLHPQIGQVPLAPAPINLPPQIAQLPLATQQQVLNKLRQQAIAKNNPQVVNAITVAQQQVQRQIEQQKGQQTAQTQLEQQRQLLVQQQQQQQLRNQIQRQQQQQFRHHVQIQQQQQKQQQQQQQHQQQQQQQQQQQQQQQQQQQQQQQQQQQQQQQQQQQQQGQIPQSQQVPQVRSMSGQPPTNVQPTIGQLPQLPKLNLPKYQTIQYDPPETKLPYPTYWSDKKADTDTLLYEQIIQRDKINKYSLIRETNGYDPFSIYGFSNKEYISRLWHTLKYYQDLKNTRMKSITSTSQKIPSASIWGNGYSGYGNGITNTTTRVIPQVEVGNRKHYLEDKLKVYKQAMNETSEQLVPIRLEFDQDRDRFFLRDTLLWNKNDKLIKIEDFVDDMLRDYRFEDATREQHIDTICQSIQEQIQEFQGNPYIELNQDRLGGDDLRIRIKLDIVVGQNQLIDQFEWDISNSDNCPEEFAESMCQELELPGEFVTAIAHSIREQVHMYHKSLALLGYNFDGSAIEDDDIRSRMLPTITLDDVYRPAAESKIFTPNLLQISAAELERLDKDKDRDTRRKRRQGRSNRRGMLALSGTSASNTSMNGVHNTVAAGNASSLPPGEILLPDIADIPRTFRTPVPSTLMPGGVDVGPSVESYELRNTTTYKSRPDRPKPVSPPCYIIDHIPGHSLLLSIKLPGKVNTKEEFAAAPNDTSSGTNAMLPSPESLKTKLNSNIRAGVTIPSIPNPIANHTVTNSPNPTLQPVIPGGAASKSVPTPSLPIAPPVAPHDSEATLLTNSNNGSSNNNTQNT
B2: Snf12 (natural protein)
chain: MSKVMKPSNGKGSRKSSKAATPDTKNFFHAKKKDPVNQDKANNASQITPTVPHSHPSDMVIPDHLAELIPELYSFQQLVDSEKRLDHFIHLRNLHMKRMVAQWERSKLSQEFLYPHLNFPNVKFLRIFISNVSENQPWQMDTNNEADLMALENATWTMRIEGRLLDNVQANDPAREKFSSFIESIVVDFKNKENDNVPSTKFNAAPEENATEGPSDKKLNLNLPLQFSLPNGDNSTTTNTDQNNATMGEETAKKDMSSTTPKLESVKWQYDPNNPVDFDGLDIKRVGSENVECTISILRKSSPEEPFMSYSPQLTAIIGLKSGTSHDAIFSIYKYIHLNELLTNDESAFENLMGNRNNHNSNTSTSKMLDAASSQVSIVKLDTQLITLLPSSLKESSPDTMKLTDLLSLINSTHLLPLQPIEIDYTVRVDKASTYGELVLDIEVPDVNALKFNNTQRESQIGAAELNENARELEQIKPKIALQDKEITSVLSNLHESNKRYRFFKKISEDPVKALNECIASTSNALKVLSGDEGYNEDMVRRANFYKENEAMLRENIEVILSNGRM
B3: Swp82 (natural protein)
chain: MLGEDEGNTVLEKGNNPSVKQGEVGAVFIVPKILIREHERVILKQILQILDQDELVQPPLDKFPYKKLELPKYIDELKTRDATNTSYKMIQLDAYGEKKVGSNGELFGGRHYLFNTFTFTAHMGVLLVLLQDVIKVLYQSNATHDEDEFIVQHDQILVMETSEEQTKFLAKNGVIPEESKGSFKYITARSAFVEFGASVIAGGQRIVDDYWESLAKKQNLSSHQRVFKLSTNLISKISLLRPSFQNNRISNANEISANTNNTCTISTSKFESQYPIVTEQPSAEIREAYIENFAKGEHISAIVPGQSISGTLELSAQFRVPRYHSKNSFQQALQMKAMDIPIGRHEELLAQYESQAPDGSASISLPNHIPSVNPSNKPIKRMLSSILDINVSSSKNKKSEENEMIKPMNKGQHKNNTSLNINGWKFESLPLKSAENSGKQQYYRGLPLYEKNTLLERLKQLTPNEIKELEHLHDAVFVNTGLQNVRKVRTKKWKKYWQYKAGIPIGLKRSQLDEFKNKYLKDVLAQTSVTTNFNEITNTDETITTKRVPNPNFLGNCNIKDFKPPYIYSHVNKVPQNVAGDKTAVKLDTEVKNTNANPVVATDPVAAKPDNLANFSNEVAMNN
B4: Swi3 (natural protein)
chain: MENTLGEGSTVNASVDVDQHGNDNNSDSNANAAVAGVANTDTAGEESQQQDESLKDEATVPNTRDAESEAITVTAKQQPTMQANKLDSQETPSTEESRAQNVFGQDNEDSDNLFGETESSVSNNEANTPSIPTNPVDNENNKPAIKEDSTIQDSNGDVKNMEDVKIQKEEEPENNTVIEGVKEESQPDENTKEMDEVEEDDEDDDQPMISPDNSIFGDTKSESKQLGNTSSVANTPSEIPDAHKAEQEDIIEKTESVDKKVDSGEERNEQEREIMNDHSKSANPKKTTITRVEPETFEIPQAHEIVIPSYSKWFNLEKIHSIEVQSLPEFFTNRIPSKTPEVYMRYRNFMVNSYRLNPNEYFSVTTARRNVSGDAAALFRLHKFLTKWGLINYQVDSKLLPKNIEPPLTSQYSTRHDAPRGLFPFESYKPSVQLPDMAKLKKMMNTSDSESTLYKYLKESKRKYDEITHPPSTTDDENGDKNDNGGKMNNEVSTSTSMTGDANLLEEGETSRPLKKVKILEQIDENWSKEDLQKLLKGIQEFGADWYKVAKNVGNKSPEQCILRFLQLPIEDKFLYGDGNGKGDNDNGLGPLKYAPHLPFSKSENPVLSTIAFLVGLVNPKTVQSMTQRAIQSAESIKSQKEEISDQKPIEHIKEGSEIAISSLGYRSHIFATNEERQMNFLTNELIRLQMEKLDAKLNHLKKLEKFMELERKTLERQQENLLIQRLNFNQNSSKIVNVLSKCLNLISDSNINNSSVAEKEEIRSQIDHFKSMLSKPETLSIGKNPFNKPNIETGENHNGQSISNENDVKPISIEAPQFYRYWSA

Columns and labels:
Experiment in all cases: cryo-EM structure
Swi1 = biological target: T1, Swi1
Swi3 = biological target: B4
Snf5 = biological target: B1
Snf2 = Snf2 (S. cerevisiae, UniProt P22082 1-1703)
cryo-EM structure = biological target: the molecule itself

Snf2, sequence (P22082 whole entry): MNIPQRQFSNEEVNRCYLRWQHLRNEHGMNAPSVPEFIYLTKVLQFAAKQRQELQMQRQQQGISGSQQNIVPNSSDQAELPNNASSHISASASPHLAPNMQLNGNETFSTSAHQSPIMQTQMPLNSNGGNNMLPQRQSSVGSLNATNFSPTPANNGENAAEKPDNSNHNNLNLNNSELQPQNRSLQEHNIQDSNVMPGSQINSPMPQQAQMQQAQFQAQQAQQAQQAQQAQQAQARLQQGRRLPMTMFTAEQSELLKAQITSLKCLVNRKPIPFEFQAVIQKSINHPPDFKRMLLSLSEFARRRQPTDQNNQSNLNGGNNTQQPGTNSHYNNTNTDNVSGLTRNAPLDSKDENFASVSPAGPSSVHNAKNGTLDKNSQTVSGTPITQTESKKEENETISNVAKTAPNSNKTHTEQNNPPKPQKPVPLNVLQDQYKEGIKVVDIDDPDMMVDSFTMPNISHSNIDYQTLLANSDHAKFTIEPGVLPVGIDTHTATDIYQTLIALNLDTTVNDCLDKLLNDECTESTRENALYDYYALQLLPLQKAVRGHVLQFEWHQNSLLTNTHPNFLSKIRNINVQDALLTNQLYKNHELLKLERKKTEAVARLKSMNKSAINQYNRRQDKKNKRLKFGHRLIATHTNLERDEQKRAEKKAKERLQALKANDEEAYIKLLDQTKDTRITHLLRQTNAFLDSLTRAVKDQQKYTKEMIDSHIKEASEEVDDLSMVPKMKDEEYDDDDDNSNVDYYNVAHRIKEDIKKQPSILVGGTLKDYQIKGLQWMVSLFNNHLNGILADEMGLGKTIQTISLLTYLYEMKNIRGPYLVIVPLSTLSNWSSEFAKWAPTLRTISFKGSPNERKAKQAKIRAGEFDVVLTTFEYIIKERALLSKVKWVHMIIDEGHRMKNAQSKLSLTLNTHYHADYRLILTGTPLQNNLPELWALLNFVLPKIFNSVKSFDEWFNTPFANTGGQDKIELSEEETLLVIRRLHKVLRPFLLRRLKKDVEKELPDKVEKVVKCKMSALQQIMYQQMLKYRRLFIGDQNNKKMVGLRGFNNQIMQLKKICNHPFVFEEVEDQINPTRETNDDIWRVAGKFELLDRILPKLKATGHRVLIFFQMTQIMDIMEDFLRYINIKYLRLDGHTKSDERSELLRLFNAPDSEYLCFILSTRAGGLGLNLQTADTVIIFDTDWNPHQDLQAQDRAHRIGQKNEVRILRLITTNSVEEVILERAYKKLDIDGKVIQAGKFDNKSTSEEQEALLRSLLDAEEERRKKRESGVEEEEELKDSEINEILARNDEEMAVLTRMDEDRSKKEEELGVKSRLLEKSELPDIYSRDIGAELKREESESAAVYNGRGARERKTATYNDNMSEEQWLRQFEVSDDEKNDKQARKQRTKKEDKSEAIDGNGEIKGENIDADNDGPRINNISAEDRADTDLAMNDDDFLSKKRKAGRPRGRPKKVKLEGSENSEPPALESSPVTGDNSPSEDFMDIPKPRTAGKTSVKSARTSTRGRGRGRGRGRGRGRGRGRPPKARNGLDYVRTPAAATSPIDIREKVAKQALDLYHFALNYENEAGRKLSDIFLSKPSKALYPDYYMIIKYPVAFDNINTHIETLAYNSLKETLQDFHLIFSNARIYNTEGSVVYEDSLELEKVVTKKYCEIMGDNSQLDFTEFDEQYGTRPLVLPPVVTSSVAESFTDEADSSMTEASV

| binding result (Swi1) | binding result (Swi3) | binding result (Snf5) | binding result (Snf2) | Binder | stoichiometry N (cryo-EM structure) |
| --- | --- | --- | --- | --- | --- |
| binds | – | – | – | B1 | – |
| binds | binds | – | – | B2 | – |
| – | binds | binds | – | B3 | – |
| binds | – | binds | binds | B4 | 2 |
